Assay results reported in patent US20200262877A1, “ION CHANNEL-BINDING PEPTIDES AND METHODS OF USE THEREOF” (priority 2017, published 2020).

Key:
α3β4 = biological target: T1, α3β4 (Homo sapiens, UniProt P30926+P32297); experiment: Ion channel panel (IonWorks Barracuda): α3β4; assay type: cell-based; conditions: 100% = no change, <100% = inhibition
T1 construct: host or cells: HEK293 or CHO
Procedure, shortened: (§1)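 Peptides were tested in duplicate at final 20 μM and 200 nM, with concentration set by amino acid analysis, in HEPES-buffered saline. They were applied for at least 5 min to HEK293 or CHO cells transfected with each channel. Currents were expressed as % inhibition, 1-(Ipeptide/Icontrol)×100, or % activation, Ipeptide/Icontrol×100, against a channel-matched reference compound.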

Nav1.7 = biological target: T2, Nav1.7 (Homo sapiens, UniProt Q15858); experiment: cell-based; assay type: cell-based; conditions: 100% = no change; for Activity of Nav1.7 with peptide, expressed as a percentage of the reference compound: peptide at 0.2 μM; for Activity of Nav1.7 with peptide (percentage of the reference compound): peptide at 20 μM
T2 construct: host or cells: HEK293 or CHO
T2 sequence (Q15858 whole entry): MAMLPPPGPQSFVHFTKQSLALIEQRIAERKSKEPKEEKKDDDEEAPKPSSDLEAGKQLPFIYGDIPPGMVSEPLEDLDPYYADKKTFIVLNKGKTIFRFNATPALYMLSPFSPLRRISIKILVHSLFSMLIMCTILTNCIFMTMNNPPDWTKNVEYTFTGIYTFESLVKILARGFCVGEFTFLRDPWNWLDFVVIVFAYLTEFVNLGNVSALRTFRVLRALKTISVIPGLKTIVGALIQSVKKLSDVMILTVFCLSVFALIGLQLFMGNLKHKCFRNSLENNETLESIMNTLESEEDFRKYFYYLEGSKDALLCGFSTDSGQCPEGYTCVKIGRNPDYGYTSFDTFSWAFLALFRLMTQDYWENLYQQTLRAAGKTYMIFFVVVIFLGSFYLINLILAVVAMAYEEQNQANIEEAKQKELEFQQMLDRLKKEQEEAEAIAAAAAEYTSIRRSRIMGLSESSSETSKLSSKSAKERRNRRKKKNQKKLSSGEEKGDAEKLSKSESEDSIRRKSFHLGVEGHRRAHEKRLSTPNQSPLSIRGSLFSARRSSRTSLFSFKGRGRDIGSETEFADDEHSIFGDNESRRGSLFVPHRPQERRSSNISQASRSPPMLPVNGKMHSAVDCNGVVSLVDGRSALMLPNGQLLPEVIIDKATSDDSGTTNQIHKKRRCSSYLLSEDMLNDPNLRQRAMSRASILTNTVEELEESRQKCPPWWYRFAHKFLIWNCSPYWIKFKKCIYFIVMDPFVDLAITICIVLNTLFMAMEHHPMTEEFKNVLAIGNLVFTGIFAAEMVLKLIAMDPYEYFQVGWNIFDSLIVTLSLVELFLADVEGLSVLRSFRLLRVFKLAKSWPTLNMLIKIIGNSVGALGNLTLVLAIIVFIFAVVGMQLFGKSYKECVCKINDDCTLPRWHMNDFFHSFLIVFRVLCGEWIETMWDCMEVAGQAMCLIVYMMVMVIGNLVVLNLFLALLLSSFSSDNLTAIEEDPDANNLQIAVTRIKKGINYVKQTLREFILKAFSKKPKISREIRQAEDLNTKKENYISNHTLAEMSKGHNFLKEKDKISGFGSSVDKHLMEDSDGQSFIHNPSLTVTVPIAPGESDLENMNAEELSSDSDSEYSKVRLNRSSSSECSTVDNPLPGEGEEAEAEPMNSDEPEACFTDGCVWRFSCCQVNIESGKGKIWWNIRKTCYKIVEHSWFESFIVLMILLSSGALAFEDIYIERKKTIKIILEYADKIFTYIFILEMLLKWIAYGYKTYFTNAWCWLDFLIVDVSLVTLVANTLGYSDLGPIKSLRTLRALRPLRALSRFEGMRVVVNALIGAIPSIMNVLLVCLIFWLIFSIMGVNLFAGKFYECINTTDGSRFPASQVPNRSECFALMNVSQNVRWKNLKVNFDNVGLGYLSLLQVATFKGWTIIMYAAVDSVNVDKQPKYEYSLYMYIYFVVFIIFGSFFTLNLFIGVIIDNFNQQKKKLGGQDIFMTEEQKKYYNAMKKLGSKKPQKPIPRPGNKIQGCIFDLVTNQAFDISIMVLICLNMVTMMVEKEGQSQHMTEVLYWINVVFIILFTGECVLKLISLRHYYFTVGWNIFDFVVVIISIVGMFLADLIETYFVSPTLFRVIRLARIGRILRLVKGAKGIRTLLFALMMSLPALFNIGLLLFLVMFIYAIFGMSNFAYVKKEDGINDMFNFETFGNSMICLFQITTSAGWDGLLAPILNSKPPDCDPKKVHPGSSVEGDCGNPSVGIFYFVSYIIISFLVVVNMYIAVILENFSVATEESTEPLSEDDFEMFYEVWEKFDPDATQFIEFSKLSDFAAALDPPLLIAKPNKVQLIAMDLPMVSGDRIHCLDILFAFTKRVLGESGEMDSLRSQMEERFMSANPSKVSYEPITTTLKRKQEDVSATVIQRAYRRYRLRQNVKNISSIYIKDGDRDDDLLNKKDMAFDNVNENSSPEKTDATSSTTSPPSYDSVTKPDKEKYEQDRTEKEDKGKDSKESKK

α4β2 = biological target: T3, α4β2 (Homo sapiens, UniProt P17787+P43681); experiment: Ion channel panel (IonWorks Barracuda): α4β2; assay type: cell-based; conditions: 100% = no change, <100% = inhibition
T3 construct: host or cells: HEK293 or CHO
Procedure, shortened: as §1

TRPA1 = biological target: T4, TRPA1 (Homo sapiens, UniProt O75762); experiment: Ion channel panel (IonWorks Barracuda): TRPA1; assay type: cell-based; conditions: 100% = no change, <100% = inhibition
T4 construct: host or cells: HEK293 or CHO
T4 sequence (O75762 whole entry): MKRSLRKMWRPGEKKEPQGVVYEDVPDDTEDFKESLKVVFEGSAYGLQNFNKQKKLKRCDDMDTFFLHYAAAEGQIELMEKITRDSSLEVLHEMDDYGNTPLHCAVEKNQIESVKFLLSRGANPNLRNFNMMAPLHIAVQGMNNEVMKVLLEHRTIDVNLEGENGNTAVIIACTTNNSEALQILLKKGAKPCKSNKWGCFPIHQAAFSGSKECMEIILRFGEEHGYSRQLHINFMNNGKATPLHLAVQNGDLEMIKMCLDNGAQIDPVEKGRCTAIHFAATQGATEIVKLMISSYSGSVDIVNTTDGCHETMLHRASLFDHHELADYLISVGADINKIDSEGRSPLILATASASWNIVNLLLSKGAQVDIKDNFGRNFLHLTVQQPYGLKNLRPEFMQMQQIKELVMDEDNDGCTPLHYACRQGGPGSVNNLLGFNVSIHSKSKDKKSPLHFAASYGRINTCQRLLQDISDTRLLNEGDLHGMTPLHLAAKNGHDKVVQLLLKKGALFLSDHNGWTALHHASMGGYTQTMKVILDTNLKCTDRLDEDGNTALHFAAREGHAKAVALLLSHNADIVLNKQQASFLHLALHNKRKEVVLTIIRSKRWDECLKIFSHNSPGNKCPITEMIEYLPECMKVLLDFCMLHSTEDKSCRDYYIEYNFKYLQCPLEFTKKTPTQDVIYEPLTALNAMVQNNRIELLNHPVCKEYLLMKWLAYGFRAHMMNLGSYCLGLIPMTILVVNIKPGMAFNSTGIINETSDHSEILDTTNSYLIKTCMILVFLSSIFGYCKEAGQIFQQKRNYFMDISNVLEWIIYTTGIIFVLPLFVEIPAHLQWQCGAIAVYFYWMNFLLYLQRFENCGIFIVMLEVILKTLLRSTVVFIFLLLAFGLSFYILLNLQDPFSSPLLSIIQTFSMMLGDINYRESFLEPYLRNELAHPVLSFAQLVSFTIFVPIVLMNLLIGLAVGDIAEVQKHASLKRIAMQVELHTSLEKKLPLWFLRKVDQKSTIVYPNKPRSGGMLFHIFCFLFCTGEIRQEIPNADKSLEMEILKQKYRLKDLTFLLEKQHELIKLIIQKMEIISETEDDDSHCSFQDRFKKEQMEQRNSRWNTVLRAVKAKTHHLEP
Procedure, shortened: as §1

Kv1.3 = biological target: T5, Kv1.3 (Homo sapiens, UniProt P22001); experiment: cell-based; assay type: cell-based; conditions: 100% = no change, <100% = inhibition
T5 construct: host or cells: HEK293 or CHO
Procedure, shortened: as §1

Kv1.1 = biological target: T6, Kv1.1 (Homo sapiens, UniProt Q09470); experiment: cell-based; assay type: cell-based; conditions: 100% = no change, <100% = inhibition
T6 construct: host or cells: HEK293 or CHO
Procedure, shortened: as §1

Kv1.2 = biological target: T7, Kv1.2 (Homo sapiens, UniProt P16389); experiment: cell-based; assay type: cell-based; conditions: 100% = no change, <100% = inhibition
T7 construct: host or cells: HEK293 or CHO
Procedure, shortened: as §1

TRPV1 = biological target: T8, TRPV1 (Homo sapiens, UniProt Q8NER1); experiment: Ion channel panel (IonWorks Barracuda): TRPV1; assay type: cell-based; conditions: 100% = no change, <100% = inhibition
T8 construct: host or cells: HEK293 or CHO
Procedure, shortened: as §1

NR2B = biological target: T9, NR2B (Homo sapiens, UniProt Q13224); experiment: Ion channel panel (IonWorks Barracuda): NR2B; assay type: cell-based; conditions: 100% = no change, <100% = inhibition
T9 construct: host or cells: HEK293 or CHO
Procedure, shortened: as §1

NR2A = biological target: T10, NR2A (Homo sapiens, UniProt Q12879); experiment: Ion channel panel (IonWorks Barracuda): NR2A; assay type: cell-based; conditions: 100% = no change, <100% = inhibition
T10 construct: host or cells: HEK293 or CHO
Procedure, shortened: as §1

Cav2.1 = biological target: T11, Cav2.1 (Homo sapiens, UniProt O00555); experiment: cell-based; conditions: 100% = no change, <100% = inhibition
T11 construct: host or cells: HEK293 or CHO
Procedure, shortened: as §1

Kv2.1 = biological target: T12, Kv2.1 (Homo sapiens, UniProt Q14721); experiment: cell-based; conditions: 100% = no change, <100% = inhibition
T12 construct: host or cells: HEK293 or CHO
Procedure, shortened: as §1

Cav2.2 = biological target: T13, Cav2.2 (Homo sapiens, UniProt Q00975); experiment: cell-based; conditions: 100% = no change, <100% = inhibition
T13 construct: host or cells: HEK293 or CHO
Procedure, shortened: as §1

Kir2.1 = biological target: T14, Kir2.1 (Homo sapiens, UniProt P63252); experiment: Ion channel panel (IonWorks Barracuda): Kir2.1; assay type: cell-based; conditions: 100% = no change, <100% = inhibition
T14 construct: host or cells: HEK293 or CHO
Procedure, shortened: as §1

Nav1.5 = Nav1.5 (Homo sapiens, UniProt Q14524); experiment: in vitro; conditions: 100% = no change; for Activity of Nav1.5 with peptide, expressed as a percentage of the reference compound: peptide at 0.2 μM; for Activity of Nav1.5 with peptide (percentage of the reference compound): peptide at 20 μM
Nav1.5, sequence (Q14524 whole entry): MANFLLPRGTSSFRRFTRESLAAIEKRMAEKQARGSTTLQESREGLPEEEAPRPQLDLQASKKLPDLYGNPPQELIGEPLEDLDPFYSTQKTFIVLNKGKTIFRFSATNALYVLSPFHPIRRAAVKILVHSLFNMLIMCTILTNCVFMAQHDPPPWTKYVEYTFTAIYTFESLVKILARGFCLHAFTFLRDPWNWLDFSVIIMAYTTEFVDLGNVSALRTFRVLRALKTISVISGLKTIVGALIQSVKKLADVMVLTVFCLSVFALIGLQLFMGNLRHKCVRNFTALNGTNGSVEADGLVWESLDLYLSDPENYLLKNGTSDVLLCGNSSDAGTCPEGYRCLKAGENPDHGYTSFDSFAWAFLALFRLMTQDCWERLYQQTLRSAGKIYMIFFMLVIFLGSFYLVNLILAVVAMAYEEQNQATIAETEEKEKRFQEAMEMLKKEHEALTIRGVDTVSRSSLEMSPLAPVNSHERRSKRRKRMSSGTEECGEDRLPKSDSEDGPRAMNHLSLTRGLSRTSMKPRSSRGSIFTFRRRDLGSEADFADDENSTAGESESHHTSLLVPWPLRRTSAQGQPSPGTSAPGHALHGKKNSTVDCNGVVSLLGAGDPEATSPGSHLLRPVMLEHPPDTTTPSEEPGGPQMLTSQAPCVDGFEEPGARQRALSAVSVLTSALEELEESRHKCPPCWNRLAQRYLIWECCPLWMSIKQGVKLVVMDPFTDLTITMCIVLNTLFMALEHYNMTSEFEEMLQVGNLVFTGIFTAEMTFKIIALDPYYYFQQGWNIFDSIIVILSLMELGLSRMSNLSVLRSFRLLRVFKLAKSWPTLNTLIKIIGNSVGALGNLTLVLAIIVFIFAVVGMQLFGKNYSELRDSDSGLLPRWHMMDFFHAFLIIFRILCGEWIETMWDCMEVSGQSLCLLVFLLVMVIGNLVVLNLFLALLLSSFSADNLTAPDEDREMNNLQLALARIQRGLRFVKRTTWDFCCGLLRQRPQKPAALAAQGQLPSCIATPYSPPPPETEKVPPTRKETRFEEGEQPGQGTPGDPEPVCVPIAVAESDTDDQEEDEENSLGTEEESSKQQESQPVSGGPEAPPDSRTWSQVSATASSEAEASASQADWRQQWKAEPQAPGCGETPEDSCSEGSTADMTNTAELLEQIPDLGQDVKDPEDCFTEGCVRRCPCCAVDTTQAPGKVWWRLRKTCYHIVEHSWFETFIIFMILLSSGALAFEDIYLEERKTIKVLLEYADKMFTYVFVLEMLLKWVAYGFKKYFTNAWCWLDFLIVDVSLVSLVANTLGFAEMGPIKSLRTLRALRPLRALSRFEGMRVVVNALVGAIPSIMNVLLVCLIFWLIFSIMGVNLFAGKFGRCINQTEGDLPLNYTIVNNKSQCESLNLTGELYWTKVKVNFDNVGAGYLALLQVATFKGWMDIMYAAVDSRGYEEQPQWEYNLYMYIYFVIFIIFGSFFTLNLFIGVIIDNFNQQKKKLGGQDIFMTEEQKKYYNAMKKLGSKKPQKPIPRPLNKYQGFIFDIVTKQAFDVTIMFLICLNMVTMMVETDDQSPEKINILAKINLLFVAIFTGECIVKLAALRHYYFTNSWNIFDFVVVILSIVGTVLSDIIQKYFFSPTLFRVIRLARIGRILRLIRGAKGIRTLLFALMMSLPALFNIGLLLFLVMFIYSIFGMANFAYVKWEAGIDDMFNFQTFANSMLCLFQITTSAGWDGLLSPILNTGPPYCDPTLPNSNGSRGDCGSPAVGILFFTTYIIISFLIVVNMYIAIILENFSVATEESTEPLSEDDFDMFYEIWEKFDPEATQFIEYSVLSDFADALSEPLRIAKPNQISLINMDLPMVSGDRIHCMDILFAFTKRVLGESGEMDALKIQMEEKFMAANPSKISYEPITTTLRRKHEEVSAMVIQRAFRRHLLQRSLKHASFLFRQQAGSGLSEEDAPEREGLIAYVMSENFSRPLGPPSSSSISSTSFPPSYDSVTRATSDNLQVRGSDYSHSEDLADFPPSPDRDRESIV
Procedure, shortened: as §1

hERG = hERG (Homo sapiens, UniProt Q12809); experiment: in vitro; conditions: 100% = no change, <100% = inhibition
Procedure, shortened: as §1

GABA = experiment: Ion channel panel (IonWorks Barracuda): GABA; assay type: cell-based; conditions: 100% = no change, <100% = inhibition
Procedure, shortened: as §1

5HT3a = biological target: T15, 5HT3a (Homo sapiens, UniProt P46098); experiment: Ion channel panel (IonWorks Barracuda): 5HT3a; assay type: cell-based
T15 construct: host or cells: HEK293 or CHO
T15 sequence (P46098 whole entry, looked up): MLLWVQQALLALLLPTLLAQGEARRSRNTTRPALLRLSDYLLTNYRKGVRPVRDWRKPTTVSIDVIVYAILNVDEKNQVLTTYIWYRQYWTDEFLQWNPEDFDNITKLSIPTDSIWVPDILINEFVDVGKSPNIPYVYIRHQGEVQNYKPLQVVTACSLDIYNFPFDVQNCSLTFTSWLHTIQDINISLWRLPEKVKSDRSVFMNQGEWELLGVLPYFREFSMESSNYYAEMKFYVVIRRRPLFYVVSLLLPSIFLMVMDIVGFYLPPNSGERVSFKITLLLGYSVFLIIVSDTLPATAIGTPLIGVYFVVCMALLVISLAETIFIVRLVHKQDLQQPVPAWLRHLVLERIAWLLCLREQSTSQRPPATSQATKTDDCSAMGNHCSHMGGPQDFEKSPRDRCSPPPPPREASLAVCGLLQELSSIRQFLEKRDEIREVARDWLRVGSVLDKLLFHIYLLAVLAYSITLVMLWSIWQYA
Procedure, shortened: as §1

[1] = first of two Nav1.7 columns (probably TP1)
[2] = second of two Nav1.7 columns (probably TP2)
[3] = first of two Nav1.5 columns (probably TP1)
[4] = second of two Nav1.5 columns (probably TP2)

Question: What does the source list for “18 (GSNCAGYMRECKEKLCCSGYVCSSRWKWCVLPAPWRR) [compound 18]”?
Answer: Activity of a3b4 with peptide, expressed as a percentage of the reference compound (α3β4; peptide at 0.2 μM): 110%; Activity of a3b4 with peptide (percentage of the reference compound) (α3β4; peptide at 20 μM): 89%; Activity of Nav1.7 with peptide, expressed as a percentage of the reference compound (Nav1.7; [1]): 85%; Activity of Nav1.7 with peptide, expressed as a percentage of the reference compound (Nav1.7; [2]): 84%; Activity of Nav1.7 with peptide (percentage of the reference compound) (Nav1.7; [1]): 43%; Activity of Nav1.7 with peptide (percentage of the reference compound) (Nav1.7; [2]): 55%; Activity of a4b2 with peptide, expressed as a percentage of the reference compound (α4β2; peptide at 0.2 μM): 109%; Activity of a4b2 with peptide (percentage of the reference compound) (α4β2; peptide at 20 μM): 92%; Activity of TRPA1 with peptide, expressed as a percentage of the reference compound (TRPA1; peptide at 0.2 μM): 130%; Activity of TRPA1 with peptide (percentage of the reference compound) (TRPA1; peptide at 20 μM): 89%; Activity of Kv1.3 with peptide, expressed as a percentage of the reference compound (Kv1.3; peptide at 0.2 μM): 87%; Activity of Kv1.3 with peptide (percentage of the reference compound) (Kv1.3; peptide at 20 μM): 7%; Activity of Kv1.1 with peptide, expressed as a percentage of the reference compound (Kv1.1; peptide at 0.2 μM): 98%; Activity of Kv1.1 with peptide (percentage of the reference compound) (Kv1.1; peptide at 20 μM): 78%; Activity of Kv1.2 with peptide, expressed as a percentage of the reference compound (Kv1.2; peptide at 0.2 μM): 67%; Activity of Kv1.2 with peptide (percentage of the reference compound) (Kv1.2; peptide at 20 μM): 30%; Activity of TRPV1 with peptide, expressed as a percentage of the reference compound (TRPV1; peptide at 0.2 μM): 93%; Activity of TRPV1 with peptide (percentage of the reference compound) (TRPV1; peptide at 20 μM): 61%; Activity of NR2B with peptide, expressed as a percentage of the reference compound (NR2B; peptide at 0.2 μM): 107%; Activity of NR2B with peptide (percentage of the reference compound) (NR2B; peptide at 20 μM): 78%; Activity of NR2A with peptide, expressed as a percentage of the reference compound (NR2A; peptide at 0.2 μM): 98%; Activity of NR2A with peptide (percentage of the reference compound) (NR2A; peptide at 20 μM): 79%; Activity of Cav2.1 with peptide, expressed as a percentage of the reference compound (Cav2.1; peptide at 0.2 μM): 97%; Activity of Cav2.1 with peptide (percentage of the reference compound) (Cav2.1; peptide at 20 μM): 98%; Activity of Kv2.1 with peptide, expressed as a percentage of the reference compound (Kv2.1; peptide at 0.2 μM): 93%; Activity of Kv2.1 with peptide (percentage of the reference compound) (Kv2.1; peptide at 20 μM): 65%; Activity of Cav2.2 with peptide, expressed as a percentage of the reference compound (Cav2.2; peptide at 0.2 μM): 132%; Activity of Cav2.2 with peptide (percentage of the reference compound) (Cav2.2; peptide at 20 μM): 124%; Activity of Kir2.1 with peptide, expressed as a percentage of the reference compound (Kir2.1; peptide at 0.2 μM): 104%; Activity of Kir2.1 with peptide (percentage of the reference compound) (Kir2.1; peptide at 20 μM): 93%; Activity of Nav1.5 with peptide, expressed as a percentage of the reference compound (Nav1.5; [3]): 104%; Activity of Nav1.5 with peptide, expressed as a percentage of the reference compound (Nav1.5; [4]): 106%; Activity of Nav1.5 with peptide (percentage of the reference compound) (Nav1.5; [3]): 87%; Activity of Nav1.5 with peptide (percentage of the reference compound) (Nav1.5; [4]): 112%; Activity of hERG with peptide, expressed as a percentage of the reference compound (hERG; peptide at 0.2 μM): 98%; Activity of hERG with peptide (percentage of the reference compound) (hERG; peptide at 20 μM): 62%; Activity of GABA with peptide, expressed as a percentage of the reference compound (GABA; peptide at 0.2 μM): 113%; Activity of GABA with peptide (percentage of the reference compound) (GABA; peptide at 20 μM): 106%; Activity of 5HT3a with peptide (percentage of the reference compound) (5HT3a): 79%; Activity of 5HT3a with peptide, expressed as a percentage of the reference compound (5HT3a): 95%
